B1: Cdc42HsQ61L (natural protein)
chain: not shown
B2: IRS-58–GST fusion protein (202–305 amino acid residues) (domain or fragment, human, UniProt Q9UQB8 202-305, looked up)
chain: CAVAKNSAAYHSKGKELLAQKLPLWQQACADPSKIPERAVQLMQQVASNGATLPSALSASKSNLVISDPIPGAKPLPVPPELAPFVGRMSAQESTPIMNGVTGP

Test in all cases: far-Western, overlay or dot blot
In one assay the target is T1, GST–IRS-58 (1–432) (human, UniProt Q9UQB8 1-432).
T1 sequence (looked up): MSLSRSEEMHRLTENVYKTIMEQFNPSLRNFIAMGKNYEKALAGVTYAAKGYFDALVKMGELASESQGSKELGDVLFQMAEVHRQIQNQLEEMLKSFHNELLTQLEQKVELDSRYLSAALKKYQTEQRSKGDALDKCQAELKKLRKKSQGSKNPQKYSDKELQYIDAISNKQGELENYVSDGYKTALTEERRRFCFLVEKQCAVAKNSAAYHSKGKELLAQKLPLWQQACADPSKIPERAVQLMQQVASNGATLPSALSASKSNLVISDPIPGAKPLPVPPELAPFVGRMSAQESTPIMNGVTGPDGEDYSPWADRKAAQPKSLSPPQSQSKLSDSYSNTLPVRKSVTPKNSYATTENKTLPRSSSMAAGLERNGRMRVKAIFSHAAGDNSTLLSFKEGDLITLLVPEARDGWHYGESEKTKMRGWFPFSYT

The target of another assay is T2, GST–IRS-58 (1–358) (human, UniProt Q9UQB8 1-358).
T2 sequence (looked up): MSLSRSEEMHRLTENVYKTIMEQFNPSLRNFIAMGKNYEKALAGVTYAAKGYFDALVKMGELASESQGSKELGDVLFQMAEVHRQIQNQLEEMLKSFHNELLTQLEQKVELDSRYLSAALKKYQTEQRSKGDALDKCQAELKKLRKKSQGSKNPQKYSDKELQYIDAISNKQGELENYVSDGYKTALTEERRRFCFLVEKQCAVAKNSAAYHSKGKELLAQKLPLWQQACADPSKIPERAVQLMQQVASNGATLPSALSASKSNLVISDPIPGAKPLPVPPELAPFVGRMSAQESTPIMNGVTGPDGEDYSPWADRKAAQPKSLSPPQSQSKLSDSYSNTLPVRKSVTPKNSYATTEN

For the assay “Cdc42HsQ61L”, the target named is B1.
Another assay addresses Cdc42Hs L61C40 (human, UniProt P60953-1 1-191, L61 | C40).

As for B1, the binding result in the assay with GST–IRS-58 (1–432) and in the assay with GST–IRS-58 (1–358) was “binds” throughout.

As to B2, the binding result with Cdc42HsQ61L and with Cdc42Hs L61C40 was “binds” each time.
